Measured values reported in patent US20060193821, “Aptamers to the human IL-12 cytokine family and their use as autoimmune disease therapeutics” (published 2006).

Columns and labels:
[1] = target: IL-12 (human, p35/p40 heterodimer) (Homo sapiens, UniProt P29459;P29460 SEQ:57-253,SEQ:23-328); assay: filter; no significant binding
[2] = target: T1, IL-23 (human, p19/p40 heterodimer) (Homo sapiens, UniProt Q9NPF7;P29460 SEQ:20-189,SEQ:23-328); assay: filter; SHMCK, tRNA; conditions: tags: R&D Systems, carrier free
Description: Monitoring Progress of rRfY Selection. Dot blot binding assays were performed throughout the selections to monitor the protein binding affinity of the pools. Trace ³²P-labeled RNA was combined with a dilution series of h-IL-23 and incubated at room temperature for 30 minutes in 1×SHMCK (20 mM Hepes, 120 mM NaCl, 5 mM KCl, 1 mM MgCl₂, 1 mM CaCl₂, pH 7.4) plus 0.1 mg/mL tRNA for a final volume of 20 μL. The binding reactions were analyzed by nitrocellulose filtration using a Minifold I dot-blot, 96-well vacuum filtration manifold (Schleicher & Schuell, Keene, N.H.). A three-layer filtration medium was used, consisting (from top to bottom) of Protran nitrocellulose (Schleicher & Schuell), Hybond-P nylon (Amersham Biosciences) and GB002 gel blot paper (Schleicher & Schuell). RNA that is bound to protein is captured on the nitrocellulose filter, whereas the non-protein bound RNA is captured on the nylon filter. The gel blot paper was included simply as a supporting medium for the other filters. Following filtration, the filter layers were separated, dried and exposed on a phosphor screen (Amersham Biosciences, Piscataway, N.J.) and quantified using a Storm 860 Phosphorimager® blot imaging system (Amersham Biosciences).
When a significant positive ratio of binding of RNA in the presence of h-IL-23 versus in the absence of h-IL-23 was seen, the pools were cloned using a TOPO TA cloning kit (Invitrogen, Carlsbad, Calif.) according to the manufacturer's instructions. For the h-IL-23 and X-IL-23 selections, the Round 8 pool templates were cloned, and 32 individual clones from each selections were assayed in a 1-point dot blot screen (+/−75 nM h-IL-23, as well as a separate screen at +/−75 nM h-IL-12). For the PN-IL-23 selection, the Round 10 pool was cloned and sequenced, and 8 unique clones were assayed for protein binding in a 1-point dot blot screen (+/−200 nM h-IL-23 and a separate screen at +/−200 nM h-IL-12). Subsequently, the Round 10 PN-IL-23 pool was re-cloned for further sequences, as well as the R12 PN-IL-23 pool, and the clones were assayed for protein binding in a 1 point do blot screen (+/−100 nM h-IL-23 or +/−200 nM h-IL-12).

[3] = target: T1, IL-23 (human, p19/p40 heterodimer); assay: filter; DPBS Ca Mg; conditions: tags: R&D Systems, carrier free
Description: The dot blot binding assay previously described was used to characterize the relative potency of the majority of the aptamers synthesized. For KD determination, chemically synthesized aptamers were purified using denaturing polyacrylamide gel electrophoresis, 5′end labeled with γ-³²P ATP and were tested for direct binding to full human IL-23. An 8 point protein titration was used in the dot blot binding assay (either {100 nM, 30 nM, 10 nM, 3 nM, 1 nM, 300 pM, 100 pM, 0 pM} or {10 nM, 3 nM, 1 nM, 300 pM, 100 pM, 30 pM, 10 pM, 0 pM}) in Dulbecco's PBS (with Mg⁺⁺ and Ca⁺⁺) with 0.1 mg/mL BSA. KD values were calculated by fitting the equation y=(max/(1+K/protein))+yint using KaleidaGraph (KaleidaGraph v. 3.51, Synergy Software). Sequences of the ARC979 derivatives synthesized, purified and assayed for binding to IL-23 as well as the results of the protein binding characterization are tabulated below in Tables 29 and 30.

IL-12 (human, p35/p40 heterodimer), sequence (P29459 23-219, chain 1 of 2): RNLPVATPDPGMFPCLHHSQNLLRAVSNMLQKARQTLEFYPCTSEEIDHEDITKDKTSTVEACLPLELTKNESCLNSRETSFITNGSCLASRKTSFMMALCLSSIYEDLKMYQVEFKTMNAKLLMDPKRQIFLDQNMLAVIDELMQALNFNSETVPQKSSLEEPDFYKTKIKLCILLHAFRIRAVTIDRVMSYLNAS
IL-12 (human, p35/p40 heterodimer), sequence (P29460 23-328, chain 2 of 2): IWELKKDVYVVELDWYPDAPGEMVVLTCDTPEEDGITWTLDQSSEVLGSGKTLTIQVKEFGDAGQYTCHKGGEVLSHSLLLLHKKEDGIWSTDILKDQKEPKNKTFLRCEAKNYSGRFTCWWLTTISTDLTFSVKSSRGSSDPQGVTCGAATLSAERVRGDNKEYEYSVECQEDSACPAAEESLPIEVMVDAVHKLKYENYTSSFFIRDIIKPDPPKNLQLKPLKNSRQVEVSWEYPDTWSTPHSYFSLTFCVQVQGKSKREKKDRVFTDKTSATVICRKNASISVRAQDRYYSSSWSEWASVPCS
T1 sequence (Q9NPF7 20-189, chain 1 of 2): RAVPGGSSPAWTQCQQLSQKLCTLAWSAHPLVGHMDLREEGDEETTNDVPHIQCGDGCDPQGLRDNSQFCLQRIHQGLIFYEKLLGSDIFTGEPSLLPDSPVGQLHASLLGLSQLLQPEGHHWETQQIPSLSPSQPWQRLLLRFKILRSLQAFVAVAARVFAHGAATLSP
T1 sequence (P29460 23-328, chain 2 of 2): as the sequence (P29460 23-328, chain 2 of 2) above

B1: AMX91-E3 (ssRNA)
RNA: GGGAAAAGCGAAUCAUACACAAGAUUACUCCGUUAGUGUCAGUUGACGGAGGGAGCGUACUAUUGCUCCGCCAGAGACCAACCGAGAA
modifications: 2'-F C,U
binding result [1]: no binding | Kd [2]: 205 nM

B2: AMX86-F6 (ssRNA)
RNA: GGGAAAAGCGAAUCAUACACAAGAAUGUAUACAAUGCCCUAUCGUCAGUUAGGCAUGUGUGGAUGCUCCGCCAGAGACCAACCGAGAA
modifications: 2'-F C,U
binding result [1]: no binding | Kd [2]: 69.1 nM

B3: AMX86-H7 (ssRNA)
RNA: GGGAAAAGCGAAUCAUACACAAGAGAUGACUACACGCCAGUGUGCGCUUUUUGCGGAGUUAGCGGCUCCGCCAGAGACCAACCGAGAA
modifications: 2'-F C,U
binding result [1]: no binding | Kd [2]: 89.8 nM

B4: AMX86-C8 (ssRNA)
RNA: GGGAAAAGCGAAUCAUACACAAGAGUCGUGAUGAUUUGGGUUAUGUCAGUUCCCUGUAUGGUUUCGCUCCGCCAGAGACCAACCGAGAA
modifications: 2'-F C,U
binding result [1]: no binding | Kd [2]: 107 nM

B5: AMX86-D8 (ssRNA)
RNA: GGGAAAAGCGAAUCAUACACAAGACAGAGGCAAUGAGAGCCUGGCGAUGUCAGUCGCAUCUUGCUGCUCCGCCAGAGACCAACCGAGAA
modifications: 2'-F C,U
binding result [1]: no binding | Kd [2]: 294 nM

B6: AMX86-C7 (ssRNA)
RNA: GGGAAAAGCGAAUCAUACACAAGAUGCGCUAUGUUUGGCUGGGAAUUGUAGCAUUGCUCAAGUGGCUCCGCCAGAGACCAACCGAGAA
modifications: 2'-F C,U
binding result [1]: no binding | Kd [2]: 140 nM

B7: AMX86-E6 (ssRNA)
RNA: GGGAAAAGCGAAUCAUACACAAGAUCGCAAAAGGAGUUUGUCUCUGCUCUCGGAGUGUGUCAGUGCUCCGCCAGAGACCAACCGAGAA
modifications: 2'-F C,U
binding result [1]: no binding | Kd [2]: 51.3 nM

B8: AMX84-A11 (ssRNA)
RNA: GGGAAAAGCGAAUCAUACACAAGAGAGGUAUGUGGUUUUGCGGAGCAACUCGUGUCAGCGGUCAGCUCCGCCAGAGACCAACCGAGAA
modifications: 2'-F C,U
binding result [1]: no binding | Kd [2]: 17.8 nM

B9: AMX86-A9 (ssRNA)
RNA: GGGAAAAGCGAAUCAUACACAAGAUCUACGAUUGUUCAGGUUUUUUGUACUCAACUAAAGGCGAGCUCCGCCAGAGACCAACCGAGAA
modifications: 2'-F C,U
binding result [1]: no binding | Kd [2]: 190 nM

B10: AMX91-F11 (ssRNA)
RNA: GGGAAAAGCGAAUCAUACACAAGACGCGUCAGGUCCACGCUGAAAUUUAUUUUCGGCAGUGUAAGCUCCGCCAGAGACCAACCGAGAA
modifications: 2'-F C,U
binding result [1]: no binding | Kd [2]: 202 nM

B11: AMX84-E12 (ssRNA)
RNA: GGGAAAAGCGAAUCAUACACAAGAAGUUUUUGUGCUCUGAGUACUCAGCGUCCGUAAGGGAUAUGCUCCGCCAGAGACCAACCGAGAA
modifications: 2'-F C,U
binding result [1]: no binding | Kd [2]: 27.8 nM

B12: ARC1471 (mixed)
RNA: GGCAAGUAAUUGGGGAGUGCGGGCGGGG
modifications: 2'-OMe C,U and three purines (A7,A8,G15 of ARC979); six PS; 3'-idT [2'-OMe C,U at 3,7,10,11,18,20,24; 2'-OMe purines A4,A5,G12; deoxy A,G elsewhere; PS 8-9,16-17,17-18,18-19,19-20,23-24 (N = PS linkage, left out); 3'-inverted dT at 29]
Kd [3]: 23.5 nM

B13: AMX91-G1 (ssRNA)
RNA: GGGAAAAGCGAAUCAUACACAAGAUAUGUGCCUGGGAUGGACGACAUCCCCUGUCUAAGGAUAUGCUCCGCCAGAGACCAACCGAGAA
modifications: 2'-F C,U
binding result [1]: no binding | Kd [2]: 82.3 nM

B14: AMX91-B5 (ssRNA)
RNA: GGGAAAAGCGAAUCAUACACAAGACAGUGUAUGAGGAAGAUUACUUCCAUUCCUGAGCGGUUUUCGCUCCGCCAGAGACCAACCGAGAA
modifications: 2'-F C,U
binding result [1]: no binding | Kd [2]: 148 nM

B15: AMX86-B5 (ssRNA)
RNA: GGGAAAAGCGAAUCAUACACAAGAUUAGUGCGUGUGUUGAAAGGGCUCAUAAUGUCAGUAUCGAGCUCCGCCAGAGACCAACCGAGAA
modifications: 2'-F C,U
binding result [1]: no binding | Kd [2]: 196 nM

B16: ARC1470 (mixed)
RNA: GGCAAGUAAUUGGGGAGUGCGGGCGGGG
modifications: deoxy A,G; 2'-OMe C,U; six PS; 3'-idT [2'-OMe C,U at 3,7,10,11,18,20,24; deoxy A,G elsewhere; PS 8-9,16-17,17-18,18-19,19-20,23-24 (N = PS linkage, left out); 3'-inverted dT at 29]
Kd [3]: 8.6 nM

B17: AMX86-G9 (ssRNA)
RNA: GGGAAAAGCGAAUCAUACACAAGAUCCCAGCGGUACGUGAGUCUGUUAAAGGCCACCUAAUGUCGCUCCGCCAGAGACCAACCGAGAA
modifications: 2'-F C,U
binding result [1]: no binding | Kd [2]: 109 nM

ACAGGCAAGUAAUUGGGGAGUGCGGGCGGGGUGU (mixed, 2'-OMe C,U and G25; other A,G deoxy; 3'-idT) [ARC1444]
Kd [3]: 4.4 nM

ACAGGCAAGUAAUUGGGGAGUGCGGGCGGGGUGU (mixed, 2'-OMe C,U and A1,G33; other A,G deoxy; 3'-idT) [ARC1539]
Kd [3]: 6.6 nM

ACAGGCAAGUAAUUGGGGAGUGCGGGCGGGGUGU (mixed, 2'-OMe C,U and G5; other A,G deoxy; 3'-idT) [ARC1430]
Kd [3]: 14.2 nM

ACAGGCAAGUAAUUGGGGAGUGCGGGCGGGGUGU (mixed, 2'-OMe C,U and A8,G9,A11; other A,G deoxy; 3'-idT) [ARC1540]
Kd [3]: 7.5 nM

ACAGGCAAGUAAUUGGGGAGUGCGGGCGGGGUGU (mixed, 2'-OMe C,U and G4; other A,G deoxy; 3'-idT) [ARC1429]
Kd [3]: 29.5 nM

ACAGGCAAGUAAUUGGGGAGUGCGGGCGGGGUGU (mixed, 2'-OMe C,U and G18; other A,G deoxy; 3'-idT) [ARC1439]
Kd [3]: 4.8 nM

ACAGGCAAGUAAUUGGGGAGUGCGGGCGGGGUGU (mixed, 2'-OMe C,U and G17; other A,G deoxy; 3'-idT) [ARC1438]
Kd [3]: 6 nM

B18: ARC1455 (mixed)
RNA: ACAGGCAAGUAAUUGGGGAGUGCGGGCGGGGUGU
modifications: deoxy A,G; 2'-OMe C,U; PS 5-6; 3'-idT [PS linkage 5-6; 2'-OMe C,U at 2,6,10,13,14,21,23,27,32,34; all A,G 2'-deoxy; 3'-inverted dT at 35]
Kd [3]: 1.6 nM

ACAGGCAAGUAAUUGGGGAGUGCGGGCGGGGUGU (mixed, 2'-OMe C,U and A1,A3,G33; other A,G deoxy; 3'-idT) [ARC1451]
Kd [3]: 10.2 nM

ACAGGCAAGUAAUUGGGGAGUGCGGGCGGGGUGU (mixed, 2'-OMe C,U and A7,A8,G15; other A,G deoxy; 3'-idT) [ARC1452]
Kd [3]: 18.9 nM

B19: ARC1543 (mixed)
RNA: ACAGGCAAGUAAUUGGGGAGUGCGGGCGGGGUGU
modifications: 2'-OMe C,U and A1,A8,G9,A11,G18,A19,G20,G22,G26,G28,G29,G33; other A,G deoxy; 3'-idT
Kd [3]: 5.9 nM

ACAGGCAAGUAAUUGGGGAGUGCGGGCGGGGUGU (mixed, 2'-OMe C,U and A19; other A,G deoxy; 3'-idT) [ARC1440]
Kd [3]: 6.7 nM

B20: ARC1453 (mixed)
RNA: ACAGGCAAGUAAUUGGGGAGUGCGGGCGGGGUGU
modifications: deoxy A,G; 2'-OMe C,U; PS 3-4; 3'-idT [PS linkage 3-4; 2'-OMe C,U at 2,6,10,13,14,21,23,27,32,34; all A,G 2'-deoxy; 3'-inverted dT at 35]
Kd [3]: 4.4 nM

ACAGGCAAGUAAUUGGGGAGUGCGGGCGGGGUGU (mixed, 2'-OMe C,U and A12; other A,G deoxy; 3'-idT) [ARC1435]
Kd [3]: 9.8 nM

B21: ARC1465 (mixed)
RNA: ACAGGCAAGUAAUUGGGGAGUGCGGGCGGGGUGU
modifications: deoxy A,G; 2'-OMe C,U; PS 11-12,19-20,20-21,21-22,22-23,26-27; 3'-idT [2'-OMe C,U at 2,6,10,13,14,21,23,27,32,34; deoxy A,G elsewhere; PS 11-12,19-20,20-21,21-22,22-23,26-27 (N = PS linkage, left out); 3'-inverted dT at 35]
Kd [3]: 1.3 nM

B22: ARC1462 (mixed)
RNA: ACAGGCAAGUAAUUGGGGAGUGCGGGCGGGGUGU
modifications: deoxy A,G; 2'-OMe C,U; PS 29-30; 3'-idT [2'-OMe C,U at 2,6,10,13,14,21,23,27,32,34; deoxy A,G elsewhere; PS 29-30 (N = PS linkage, left out); 3'-inverted dT at 35]
Kd [3]: 1.7 nM

ACAGGCAAGUAAUUGGGGAGUGCGGGCGGGGUGU (mixed, 2'-OMe C,U and G26,G28,G29; other A,G deoxy; 3'-idT) [ARC1542]
Kd [3]: 1.2 nM

B23: ARC1460 (mixed)
RNA: ACAGGCAAGUAAUUGGGGAGUGCGGGCGGGGUGU
modifications: deoxy A,G; 2'-OMe C,U; PS 24-25; 3'-idT [PS linkage 24-25; 2'-OMe C,U at 2,6,10,13,14,21,23,27,32,34; all A,G 2'-deoxy; 3'-inverted dT at 35]
Kd [3]: 5.8 nM
